From patent US20070014736A1, “Methods of delivering corticotroph-derived glycoprotein hormone” (priority 2005, published 2007)

Tested on: LPS-induced mild endotoxemia mouse model
Test: LPS-induced mild endotoxemia mouse model, serum cytokines
Type: in vivo, mice
Description: An in vivo experiment was designed to examine the effect of CGH in a mouse model of LPS-induced mild endotoxemia. This model mimics acute endotoxemia/sepsis by challenging mice with a low, non-lethal dose of bacterial endotoxin (lipopolysaccharide, LPS). Serum is collected at various timepoints (1-8 hours) after intraperitoneal LPS injection and analyzed for altered expression of a wide variety of pro- and anti-inflammatory cytokines and acute phase proteins that mediate the inflammatory response. The model provides a means to assess the potential anti-inflammatory effects of therapeutic candidates during a robust inflammatory response. To initially assess the model, we measured proinflammatory cytokines in a pilot experiment to collect reference data for the model.
C57B1/6 mice (Charles River Laboratories; 5 mice/group) were treated i.p. with PBS, 0.2 mg/kg CGH in PBS, or 2 mg/kg CGH in PBS 1 hour prior to LPS challenge. The mice were then challenged with 25 ug of LPS i.p. and bled at 1 hour and 4 hours after LPS injection. Serum was analyzed for TNF[…] (1 hour) and IL-6 (4 hours) levels by ELISA.
To determine if CGH would potentiate the effect of a sub-maximal dose of glucocorticoid, groups of 10 C57B1/6 mice each were treated i.p. with PBS, 0.15 or 1.5 mg/kg Dex, 2 mg/kg CGH, or a combination of CGH and low or high doses of Dex, 1 hour prior to injection of 25 ug LPS i.p. As shown in TABLE 3 (Expt #2), either 2 mg/kg CGH or 1.5 mg/kg Dex treatment alone (1 hour prior to LPS) caused a significant drop in serum TNFα levels at 1 hour, as observed in previous experiments. The effects of CGH administered in conjunction with Dex on inhibition of TNFα production were greater than either dose of Dex alone.

[1] = Expt 1, 0.2 mg/kg CGH i.p. 1 hr prior to LPS
[2] = Expt 1, 2 mg/kg CGH i.p. 1 hr prior to LPS

B1: CGH: heterodimeric protein hormone comprised of alpha subunit GPHA2 and beta subunit GPHB5, recombinantly produced in CHO cells (protein)
chain 1: QEAVIPGCHLHPFNVTVRSDRQGTCQGSHVAQACVGHCESSAFPSRYSVLVASGYRHNITSVSQCCTISGLKKVKVQLQCVGSRREELEIFTARACQCDMCRLSRY
chain 2: ASSGNLRTFVGCAVREFTFLAKKPGCRGLRITTDACWGRCETWEKPILEPPYIEAHHRVCTYNETKQVTVKLPNCAPGVDPFYTYPVAIRCDCGACSTATTECETI
Q: What does the source list for B1?
A: reduction of TNFα induction (2 mg/kg CGH, 1 hour time point, Expt 1): about 60%; increase of serum IL-6 levels (2 mg/kg CGH, 4 hour time point, Expt 1): about 70%; IL-6, 4 hours [1]: 49.7 ± 3.1 ng/mL; TNFα, 1 hour [1]: 3916 ± 1057 pg/mL; IL-6, 4 hours [2]: 71.1 ± 12.9 ng/mL; TNFα, 1 hour [2]: 2290 ± 530 pg/mL; IL-6, 4 hours (Expt 2, 2 mg/kg CGH): 57.1 ± 16.2 ng/mL; TNFα, 1 hour (Expt 2, 2 mg/kg CGH): 2274 ± 524 pg/mL
